From patent publication US7629135B2, “Toll-like receptor agonists and antagonists and methods of use thereof” (The Board of Trustees of the University of Illinois, priority 2006, dated 2009) come the findings set out here.

Assay [1] relates to RelA/p65 binding to the CK-1 site of the G-CSF promoter. Description: Chromatin immunoprecipitation (ChIP) assay in RAW264.7 cells. It counts as cell-based, mouse. The note with it: SAA 1 μM or TNFα 50 ng/ml. The method, then:
To investigate the mechanism for SAA-induced G-CSF production, the level of G-CSF transcript in SAA-stimulated BMDM was determined. […] The induction of G-CSF transcript peaked at 4 h after SAA stimulation. Since transcription of the G-CSF gene involves NF-κB binding to the RelA/p65 consensus element in the CK-1 site of the G-CSF promoter (Dunn et al., 1994; Hareng and Hartung, 2002), the role of NF-κB in SAA-stimulated G-CSF expression was determined. […] Using oligonucleotide probe based on the sequence of the CK-1 site (−161 to −152 in the G-CSF promoter), a protein •DNA complex (FIG. 2C) was identified. […] Inclusion of a RelA/p65 antibody blocking peptide in the assay abrogated the immunoprecipitation (FIG. 2D).
ChIP assay: Reagents were obtained from Upstate Biotechnology, and ChIP assay was performed as per manufacturers specifications with minor modifications. Briefly, a total of 1×10^7 RAW264.7 cells were harvested and resuspended in a serum-free DMEM medium absence or presence of 1 μM SAA, or 50 ng/ml of TNFα, and incubated for 30 or 60 min at 37° C. Following stimulation, cells were crosslinked and then washed and resuspended in SDS-lysis buffer, and were sonicated (4 times for 10 s each, with a setting at ‘4’ on a Fisher Sonic 60 dismembrenator). […] The PCR products were analyzed on a 2.5% agarose gel.

Assay [2] deals with TLR2. In words: NF-κB luciferase reporter assay in TLR2-HeLa cells. It counts as cell-based, human. The following applies: TLR2-HeLa cells, p<0.01. The method, then: (§1) To determine whether TLR2 is a receptor for SAA, a TLR2-expressing cell line was prepared in HeLa cells, which contain very little endogenous TLR2 transcript (FIG. 6A, upper panel). […] TLR2 is a class I transmembrane protein that contains an extracellular ligand binding domain (ectodomain), a transmembrane domain and a cytoplasmic domain consisting of the Toll/IL-1/receptor/Resistance (TIR) motif. Studies have shown that TLR2 forms heterodimers with TLR1 and TLR6 (Ozinsky et al., 2000), which display different preference for TLR2 ligands (Hoebe et al., 2005; Takeuchi et al., 2002). The C-terminal TIR domain is conserved among TLRs and responsible for TLR signaling (O'Neill and Bowie, 2007; Takeda and Akira, 2004). To assess the relative contributions of TLRs to SAA signaling, TLR1, TLR2, TLR4 and TLR6 were overexpressed in the TLR2-HeLa cells, and their effects on SAA-induced NF-κB luciferase reporter activity were determined. […] In addition, the TIR domain deletion mutants (ΔTIR) of these receptors were expressed, which are negative regulators of TLR signaling.
(§2) Methods for the generation of TLR2-HeLa stable cell line: HeLa cells stably transfected with human TLR2 gene were generated by transfecting HeLa cells with the expression construct pUNO-hTLR2 (InvivoGen, San Diego, Calif.; GenBank accession number for human TLR2 cDNA is NM_003264) and selected with Blasticidin at concentration of 20 μg/ml for 2 weeks. The control HeLa cells were generated at the same time by transfecting with empty pUNO vector. Cells were maintained in DMEM supplemented with 10% heat-inactivated FB S, 2 mM L-glutamine, 100 IU/ml penicillin, and 50 μg/ml streptomycin. Expression of TLR2 was confirmed using an anti-TLR2 antibody (eBioscience) and FTTC-conjugated anti-mouse antibody, on a FACSCalibur flow cytometer (Becton Dickinson). The TLR2-HeLa and control cells were then co-transfected with 5xNF-κB reporter plasmids (pNF-κB-Luc, Stratagene, Cedar Creek, Tex., catalog no. 219077) and empty SFFV vector bearing a neomycin resistant gene. The TLR2-HeLa/NF-κB reporting cells were obtained after selecting with G418 at concentration of […] for 2-3 weeks. Cells (5′10^5/ml) were grown in DMEM supplemented with 10% heat-inactivated FBS, 2 mM L-glutamine, 100 IU/ml penicillin, and […] streptomycin.
(§3) Methods for using HeLa cells in reporter assay: Mock-transfected HeLa and TLR2-HeLa cells were maintained at ˜5×10^5 cells/well in six-well plates, transfected with plasmid expression vectors coding for a 3×κB-directed luciferase reporter, pCMVβ vector DNA (Promega) and/or other expression constructs as indicated. Total DNA concentration was adjusted to 1 μg/sample by addition of empty vector DNA. Transient transfection was performed using LipofectAmine Plus reagent (Invitrogen). […]

The target in assay [3] is T1, TLR2 (Homo sapiens, UniProt O60603).
T1 construct: host or cells: HeLa
In words: NF-κB luciferase reporter assay in TLR2-HeLa cells. It counts as cell-based. The method, then: as §1, §2, §3

T1 sequence (O60603 21-784): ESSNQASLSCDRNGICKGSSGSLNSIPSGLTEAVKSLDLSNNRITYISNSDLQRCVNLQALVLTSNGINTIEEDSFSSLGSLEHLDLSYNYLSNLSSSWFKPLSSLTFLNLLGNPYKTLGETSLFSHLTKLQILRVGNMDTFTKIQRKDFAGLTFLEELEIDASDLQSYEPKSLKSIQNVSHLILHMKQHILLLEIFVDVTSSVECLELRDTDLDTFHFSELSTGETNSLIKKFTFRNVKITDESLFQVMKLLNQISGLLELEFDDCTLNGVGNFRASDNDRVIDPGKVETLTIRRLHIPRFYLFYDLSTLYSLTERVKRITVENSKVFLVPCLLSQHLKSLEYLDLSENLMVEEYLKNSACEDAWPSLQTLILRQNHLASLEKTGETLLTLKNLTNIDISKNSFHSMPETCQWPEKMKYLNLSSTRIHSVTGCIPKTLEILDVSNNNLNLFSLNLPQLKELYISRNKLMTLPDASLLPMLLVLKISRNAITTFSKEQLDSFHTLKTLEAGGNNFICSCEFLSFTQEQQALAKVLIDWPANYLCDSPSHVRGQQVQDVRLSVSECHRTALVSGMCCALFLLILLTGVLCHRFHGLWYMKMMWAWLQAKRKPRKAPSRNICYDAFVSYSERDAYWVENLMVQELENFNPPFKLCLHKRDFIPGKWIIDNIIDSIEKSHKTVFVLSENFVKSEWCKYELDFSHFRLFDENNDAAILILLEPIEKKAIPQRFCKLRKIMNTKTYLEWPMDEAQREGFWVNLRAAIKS
T1 sequence (Q15399 25-786 partner): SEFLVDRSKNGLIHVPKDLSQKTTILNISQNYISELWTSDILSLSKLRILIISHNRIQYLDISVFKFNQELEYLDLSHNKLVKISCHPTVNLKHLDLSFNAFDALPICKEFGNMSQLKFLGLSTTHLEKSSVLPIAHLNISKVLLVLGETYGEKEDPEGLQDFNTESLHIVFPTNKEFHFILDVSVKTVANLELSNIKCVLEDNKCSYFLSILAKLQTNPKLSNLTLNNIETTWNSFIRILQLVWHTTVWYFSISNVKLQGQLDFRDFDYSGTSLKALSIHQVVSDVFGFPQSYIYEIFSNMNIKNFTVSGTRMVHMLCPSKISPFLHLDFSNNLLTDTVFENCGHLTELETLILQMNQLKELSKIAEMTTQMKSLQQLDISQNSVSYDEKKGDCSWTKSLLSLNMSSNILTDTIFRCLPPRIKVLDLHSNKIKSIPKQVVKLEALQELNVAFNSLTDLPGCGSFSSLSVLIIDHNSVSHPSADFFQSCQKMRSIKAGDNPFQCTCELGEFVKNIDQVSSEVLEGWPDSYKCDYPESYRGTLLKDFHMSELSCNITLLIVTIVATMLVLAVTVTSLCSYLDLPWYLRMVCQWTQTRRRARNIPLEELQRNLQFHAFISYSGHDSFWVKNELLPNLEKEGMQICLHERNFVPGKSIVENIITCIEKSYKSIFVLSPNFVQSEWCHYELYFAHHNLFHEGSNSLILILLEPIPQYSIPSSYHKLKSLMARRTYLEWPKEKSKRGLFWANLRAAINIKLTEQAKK

B1: SAA: Recombinant human SAA purchased from PeproTech; major acute-phase protein of 104 amino acids (protein, UniProt P0DJI8 19-122, looked up)
Serum amyloid A-1 protein: RSFFSFLGEAFDGARDMWRAYSDMREANYIGSDKYFHARGNYDAAKRGPGGAWAAEVITDARENIQRFFGHGAEDSLADQAANEWGRSGKDPNHFRPAGLPEKY
Turning to B1, in assay [1], the “pull-down of CK-1 DNA fragment by anti-RelA/p65 antibody” value is given as “able to pull-down the CK-1 DNA fragment”. Also, the “SAA-induced NF-κB luciferase activity with ΔTIR mutants of TLR1, TLR2 and TLR6” value in the assay with TLR2 [2] is “significant inhibition”. Besides, the NF-κB luciferase activity result with TLR2 [3] (SAA-stimulated TLR2-HeLa vs mock-transfected HeLa cells, p<0.01) is “significantly increased NF-κB luciferase activity”. The “SAA-induced NF-κB luciferase activity with exogenous expression of TLR1” value with TLR2 [3] (TLR2-HeLa cells overexpressing TLR1) is listed as “potentiated SAA-induced NF-κB luciferase activity”.
